B1: GalT(Y289L): β-(1,4)-galactosyltransferase mutant enzyme Bos taurus GalT-Y289L (SEQ ID NO: 1), prior-art comparator (protein)
chain: MKFREPLLGGSAAMPGASLQRACRLLVAVCALHLGVTLVYYLAGRDLRRLPQLVGVHPPLQGSSHGAAAIGQPSGELRLRGVAPPPPLQNSSKPRSRAPSNLDAYSHPGPGPGPGSNLTSAPVPSTTTRSLTACPEESPLLVGPMLIEFNIPVDLKLIEQQNPKVKLGGRYTPMDCISPHKVAIIILFRNRQEHLKYWLYYLHPMVQRQQLDYGIYVINQAGESMFNRAKLLNVGFKEALKDYDYNCFVFSDVDLIPMNDHNTYRCFSQPRHISVAMDKFGFSLPYVQLFGGVSALSKQQFLSINGFPNNYWGWGGEDDDIYNRLAFRGMSVSRPNAVIGKCRMIRHSRDKKNEPNPQRFDRIAHTKETMLSDGLNSLTYMVLEVQRYPLYTKITVDIGTPS
modifications: Bos Taurus GalT Y289L mutant

Test: Coupled glycosyltransferase assay (R&D Systems Glycosyltransferase Activity Kit, malachite green, 620 nm): transfer of F2-GalNAz to GlcNAc
Assay type: biochemical
Design: Data from the determination of the specific activity: unit not given here
Conditions: for Data from the determination of the specific activity: GlcNAc 20 mM, UDP-F2-GalNAz 500 μM, 20 min, room temperature, plate read at 620 nm; for specific activity: UDP-F2-GalNAz 500 μM to GlcNAc 20 mM, 5 mM MgCl2 and 5 mM MnCl2, pH 7.5, linear regression; for transferase activity compared with GalT(Y289L): transfer of F2-GalNAz from UDP-F2-GalNAz (18) to GlcNAc, FIG. 7 / FIG. 8
Excerpt: In brief, the glycosyltransferase kit determines the activity of a particular glycosyltransferase by means of a coupled assay that detects the release of liberated UDP upon transfer of the donor sugar (from the sugar-UDP nucleotide) to an acceptor sugar. In more detail, the UDP that is liberated upon transfer of sugar is hydrolyzed by a particular enzyme (CD39L3/rectonucleoside triphosphate diphosphohydrolase-3, also known as NTPDase-3) thereby generating UMP and one equivalent of phosphate (Pi). The latter phosphate in turn is detected by malachite green, which is also added to the mixture. A green color develops in proportion to the amount of inorganic phosphate released and the absorbance of the color at 620 nm is measured as a direct measure of the activity of the glycosyltransferase. In the present case, transfer of F2-GalNAz from the UDP-substrate to GlcNAc on the protein is accompanied by release of UDP, which is hydrolyzed by CD39L3 and the generated phosphate. Preferably, the derived or wild type β-(1,4)-GalNAcT enzyme used in the process according to the invention has at least 30%, 33%, 50%, 75%, 100%, 150%, 200%, or more preferably at least 300% of the UDP-F2-GalNAz transfer activity as compared to the UDP-F2-GalNAz transfer activity of the β-(1,4)-galactosyltransferase mutant enzyme Bos taurus GalT-Y289L (SEQ ID NO: 1), wherein the transfer activity is assessed using the R&D Systems Glycosyltransferase Activity Kit and applying the conditions as indicated in detail in Example 18 and using equal amounts of the enzyme to be tested and β-(1,4)-galactosyltransferase mutant enzyme Bos taurus GalT-Y289L (SEQ ID NO: 1).
Specific activity of enzymes was determined by a coupled glycosyltransferase procedure as described by Wu et al. in Glycobiology 2010, 21, 723-733, incorporated by reference, and commercially available as a kit from R&D system.
In short, a glycosyltransferase reaction was carried out in 50 μL of reaction buffer (25 mM Tris, 150 mM NaCl, 5 mM MgCl2 and 5 mM MnCl2, pH 7.5) in a 96-well plate at room temperature for 20 min. To determine the kinetic parameters of a glycosyltransferase, multiple reactions with varying amounts of the enzyme were carried out simultaneously (0.01, 0.02, 0.04, 0.06, 0.08, 0.10 and 0.12 μg of enzyme) in the presence of fixed amounts of all other components (GlcNAc: 20 mM, UDP-F2-GalNAz: 500 μM), including the coupling phosphatase 1 (ENTPD3/CD39L3) (2.5 μL of 20 ng/μL solution). A well containing all components except for the enzyme served as a blank control. The reactions were initiated by adding the substrates and phosphatase to the enzyme and terminated by the addition of 30 μL of Malachite reagent A and 100 μL of water to each well. The color was developed by the addition of 30 μL of Malachite reagent B to each well followed by gentle mixing and incubation at room temperature for 20 min. Following color development, the plate was read at 620 nm with a multi-well plate reader. A phosphate standard curve was also performed to determine the conversion factor between the absorbance and the inorganic phosphate contents. Preparation of UDP-F2-GalNAz is described in Example 13.
The specific activity of the GalNAcTs described herein were compared to GalT(Y289L), an enzyme known to transfer UDP-GalNAz as previously disclosed in WO 2007/095506 and WO 2008/029281 (both Invitrogen Corporation).
A graph depicting the conversion (in pmol/min/m) plotted against the amount of enzyme is shown in FIG. 7 (for Table 1) and FIG. 8 (for Table 2). From these plots specific activities were calculated by linear regression. […]

| Molecule | Data from the determination of the specific activity (0.01 μg enzyme) | Data from the determination of the specific activity (0.02 μg enzyme) | Data from the determination of the specific activity (0.04 μg enzyme) | Data from the determination of the specific activity (0.06 μg enzyme) | Data from the determination of the specific activity (0.08 μg enzyme) | Data from the determination of the specific activity (0.1 μg enzyme) | Data from the determination of the specific activity (0.12 μg enzyme) | specific activity [pmol/min/µg] | transferase activity compared with GalT(Y289L) |
| --- | --- | --- | --- | --- | --- | --- | --- | --- | --- |
| CeGalNAcT(I257L): truncated C. elegans GalNAcT mutant, isoleucine 257 to leucine, SEQ ID NO: 10 | 0.02 | 0.038 | 0.081 | 0.136 | 0.153 | 0.205 | 0.245 | 381 | significantly higher |
| CeGalNAcT-His: CeGalNAcT(30-383) with C-terminal His6-tag, SEQ ID NO: 14 | 0.024 | 0.044 | 0.129 | 0.161 | 0.191 | 0.226 | 0.285 | 332 | significantly higher |
| CeGalNAcT(I257A): truncated C. elegans GalNAcT mutant, isoleucine 257 to alanine, SEQ ID NO: 12 | 0.009 | 0.032 | 0.049 | 0.078 | 0.097 | 0.119 | 0.152 | 240 | significantly higher |
| B1 | 0.005 | 0.011 | 0.013 | 0.02 | 0.027 | 0.034 | 0.039 | 44 |  |

— patent US11046988B2, “Process for the modification of a glycoprotein using a β-(1,4)-N-acetylgalactosaminyl transferase or a mutant thereof” (Synaffix B.V., priority 2014, dated 2021)
